Assay results: patent publication US20260109776A1 (Amgen, published 2026)

Experiments:
[1] = molecular target: human CD40 (human, UniProt P25942 21-277); experiment: cell-based or functional assay
[2] = molecular target: T1, cynoCD40(1-193) (cynomolgus monkey, UniProt P25942 21-193 (human entry)); experiment: Octet
T1 construct: also called soluble cynomolgus monkey CD40
T1 chain: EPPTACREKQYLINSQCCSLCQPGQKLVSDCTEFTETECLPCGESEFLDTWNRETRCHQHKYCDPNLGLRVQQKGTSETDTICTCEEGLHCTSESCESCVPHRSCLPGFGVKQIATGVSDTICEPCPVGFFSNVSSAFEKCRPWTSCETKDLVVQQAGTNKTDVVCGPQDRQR
Experimental: (§1) A panel of mesothelin×CD40 bispecific antibodies were generated in the IgG-scFv format (Table 13) and evaluated for binding to soluble forms of human and cynomolgus monkey CD40 and human and cynomolgus monkey mesothelin using the Octet assay (Table 14). Association rate (Kon), disassociation rate (Kdis), and equilibrium binding constant (KD) were calculated. […] These bispecific antibodies were next evaluated for their ability to induce mesothelin-dependent activation of human B cells. CHO cells expressing human mesothelin were seeded into a 96 well plate. The next day varying concentrations of the mesothelin×CD40 IgG-scFv antibodies were added to the wells along with purified human B cells and the plates were incubated for an additional 48 hours. Upregulation of CD86, a marker of CD40-mediated B cell activation, was quantified on B cells by flow cytometry.

[3] = molecular target: T2, cynoMSLN(296-598) (cynomolgus monkey); experiment: Octet
T2 chain: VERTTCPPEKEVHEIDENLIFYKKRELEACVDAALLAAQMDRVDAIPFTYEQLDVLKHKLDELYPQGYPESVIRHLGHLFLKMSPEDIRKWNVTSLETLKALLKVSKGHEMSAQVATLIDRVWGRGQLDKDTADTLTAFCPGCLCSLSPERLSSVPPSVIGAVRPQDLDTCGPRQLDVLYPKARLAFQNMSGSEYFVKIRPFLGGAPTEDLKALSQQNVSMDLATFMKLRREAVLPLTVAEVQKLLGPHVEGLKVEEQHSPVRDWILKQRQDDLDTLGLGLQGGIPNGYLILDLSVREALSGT
Experimental: as §1

[4] = molecular target: T3, huMSLN(296-598) (human, UniProt Q13421 296-598); experiment: Octet
T3 construct: also called soluble human mesothelin
T3 sequence (Q13421 other isoform, or with tags, fused parts or gaps): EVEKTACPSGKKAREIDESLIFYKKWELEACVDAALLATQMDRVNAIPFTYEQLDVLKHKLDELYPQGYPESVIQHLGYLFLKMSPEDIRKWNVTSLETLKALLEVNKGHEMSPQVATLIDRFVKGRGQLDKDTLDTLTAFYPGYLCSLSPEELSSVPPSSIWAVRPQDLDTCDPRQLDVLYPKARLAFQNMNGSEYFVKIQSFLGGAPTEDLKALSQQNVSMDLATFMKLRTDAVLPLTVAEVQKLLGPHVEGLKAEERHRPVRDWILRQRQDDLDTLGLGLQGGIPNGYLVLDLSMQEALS
Experimental: as §1

[5] = molecular target: T4, huCD40(1-193) (human, UniProt P25942 21-193); experiment: Octet
T4 construct: also called soluble human CD40
Experimental: as §1

EC50 (nM), CD86 upregulation on human B cells with huMSLN-CHO cells [1]: 0.00935 nM | Kd [2]: 1.7 nM | koff [2]: 0.000407 s⁻¹ | kon [2]: 238000 M⁻¹ s⁻¹ | Kd [3]: 5.8 nM | koff [3]: 0.00199 s⁻¹ | kon [3]: 345000 M⁻¹ s⁻¹ | Kd [4]: 0.4 nM | koff [4]: 0.000306 s⁻¹ | kon [4]: 692000 M⁻¹ s⁻¹ | Kd [5]: 2 nM | koff [5]: 0.000407 s⁻¹ | kon [5]: 204000 M⁻¹ s⁻¹
B1: 6032-2 (bispecific antibody)
heavy: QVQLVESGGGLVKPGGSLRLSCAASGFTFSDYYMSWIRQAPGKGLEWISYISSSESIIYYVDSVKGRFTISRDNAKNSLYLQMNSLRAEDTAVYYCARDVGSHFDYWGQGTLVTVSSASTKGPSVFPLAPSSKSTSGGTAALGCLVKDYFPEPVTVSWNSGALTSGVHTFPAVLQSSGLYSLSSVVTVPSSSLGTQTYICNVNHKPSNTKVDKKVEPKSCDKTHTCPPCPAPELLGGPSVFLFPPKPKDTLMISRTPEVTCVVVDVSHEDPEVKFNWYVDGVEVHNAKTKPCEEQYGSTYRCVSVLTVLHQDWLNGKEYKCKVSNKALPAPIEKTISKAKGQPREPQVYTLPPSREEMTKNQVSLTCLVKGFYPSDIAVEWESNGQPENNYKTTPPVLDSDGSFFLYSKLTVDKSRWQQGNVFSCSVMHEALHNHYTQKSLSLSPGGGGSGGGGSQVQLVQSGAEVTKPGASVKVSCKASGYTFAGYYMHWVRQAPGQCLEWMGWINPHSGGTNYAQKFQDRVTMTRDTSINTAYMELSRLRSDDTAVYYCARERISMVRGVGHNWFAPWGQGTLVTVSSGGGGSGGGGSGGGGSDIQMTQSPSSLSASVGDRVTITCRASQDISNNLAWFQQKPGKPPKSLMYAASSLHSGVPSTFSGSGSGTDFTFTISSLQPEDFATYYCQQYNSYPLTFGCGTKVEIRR
light: DIQMTQSPSSVSASVGDRVTITCRASQDISRWLAWYQQKPGKAPKLLISAASRLQSGVPSRFSGSGSGTDFTLTISSLQPEDFAIYYCQQAKSFPRTFGQGTKVEIKRTVAAPSVFIFPPSDEQLKSGTASVVCLLNNFYPREAKVQWKVDNALQSGNSQESVTEQDSKDSTYSLSSTLTLSKADYEKHKVYACEVTHQGLSSPVTKSFNRGEC
notes: IgG-scFv: IgG (MSLN) 6F4, scFv (CD40) 29H10
